Results: PMC3852654

Legend:
[1] = molecular target: Rap1a (resistance-associated protein 1a, immunity protein of Ssp1), without N-terminal periplasmic targeting sequence (Serratia marcescens); assay: SEC; Rap1a alone in solution (Supplementary Fig. S1)
[2] = molecular target: Rap1a (resistance-associated protein 1a, immunity protein of Ssp1), without N-terminal periplasmic targeting sequence (Serratia marcescens); assay: crystal structure; Rap1a alone; reservoir 25% PEG 3350, 100 mM bis-tris pH 5.5; about 2.0 A; two molecules in the asymmetric unit
[3] = molecular target: Rap2a (resistance-associated protein 2a, immunity protein of Ssp2), without N-terminal periplasmic targeting sequence (Serratia marcescens); assay: crystal structure; Rap2a alone, 13.5 mg/ml; reservoir 25% PEG 1000, 0.1 M MES pH 6.5; 1.9 A; four molecules in the asymmetric unit

For “Rap1a (resistance-associated protein 1a, immunity protein of Ssp1), without N-terminal periplasmic targeting sequence (natural protein)”, the stoichiometry N [1] was 2 and the stoichiometry N [2] was 2.
Substance “Rap2a (resistance-associated protein 2a, immunity protein of Ssp2), without N-terminal periplasmic targeting sequence (natural protein)” has a stoichiometry N [3] of 2.
